Literature values in publication PMC7411019.

Target: cTnI-binding peptide

Sequence of Cardiac troponin I 114-144 (P19429 114-144): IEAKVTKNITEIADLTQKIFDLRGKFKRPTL

Kd: 270 pM
Substance: Cardiac troponin I 114-144 (from UniProt P19429)
